Experimental data: paper PMC3863769

Target: mPVR-Ig (extracellular portion of mouse PVR fused to the Fc portion of human IgG1) (mouse)
Experiment: SPR

B1: mDNAM1-Ig (extracellular portion of mouse DNAM1 fused to the Fc portion of human IgG1) (Fc fusion)
chain: EETLWDTTVRLSETMTLECVYPLTHNLTQVEWTKNTGTKTVSIAVYNPNHNMHIESNYLHRVHFLNSTVGFRNMSLSFYNASEADIGIYSCLFHAFPNGPWEKKIKVVWSDSFEIAAPSDSYLSAEPGQDVTLTCQLPRTWPVQQVIWEKVQPHQVDILASCNLSQETRYTSKYLRQTRSNCSQGSMKSILIIPNAMAADSGLYRCRSEAITGKNKSFVIRLIITDGGTNKHFILP
Q: What does the source list for B1?
A: Kd: 5.16 µM; koff: 0.00259 s⁻¹; kon: 502 M⁻¹ s⁻¹
